Values quoted from earlier work in article PMC4264850.

Target: EGFR (Homo sapiens) (UniProt P00533)

Kd: 0.34 nM
Substance: matuzumab
